Results taken from PMC3293257.

Biological target: FBF-1/CSR-1 heterodimer (GST-FBF-1 with His6-CSR-1(MID-PIWI)) (C. elegans) (UniProt Q9N5M6)
Assay: pull-down

stoichiometry N: 1
Substance: Recombinant EFT-3 (natural protein)
